Assay results reported in article PMC6630058 (Biotechnology Reports, 2019).

Biological target: Toxoplasma gondii major surface antigen 1 (SAG1) (Toxoplasma gondii, RH strain, UniProt P13664)
Test: far-Western, overlay or dot blot

Chain of Toxoplasma gondii major surface antigen 1 (SAG1) (P13664 48-336): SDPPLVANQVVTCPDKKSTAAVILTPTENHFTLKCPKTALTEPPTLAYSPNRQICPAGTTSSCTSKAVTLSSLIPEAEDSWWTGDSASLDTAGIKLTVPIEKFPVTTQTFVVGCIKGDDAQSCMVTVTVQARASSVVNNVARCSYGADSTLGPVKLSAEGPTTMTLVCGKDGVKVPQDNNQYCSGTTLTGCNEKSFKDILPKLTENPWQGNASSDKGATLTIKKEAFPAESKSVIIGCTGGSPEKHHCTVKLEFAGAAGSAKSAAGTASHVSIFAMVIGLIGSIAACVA

B1: scFvSG15(VLT8P)-AP conjugate (scFvSG15-AP with T8P in FR-1 of the kappa VL) (scFv, V domains shown)
VH: QVQLQQSGAELVRPGVSVKISCKGSGYTFTDYGMHWVKQSHAKSLEWIGIISTYSGDASYNQKFKGKATMTVDKSSSTAYMELARLTSEDSAIYYCARSSTWYYFDYWGQGTTLTVSS
VL: DIQVTQTPSSLSASLGDRVTISCRASQDISNYLNWYQQKPDGTVKLLIYYTSRLHSGVPSRFSGSGSGTDYSLTISNLEQEDIATYFCQQGNTLPYTFGGGTKLEIK
Q: Does B1 bind?
A: Result: binds
